Measured values from patent US20190292221A1 (published 2019).

Tests used:
[1] = biological target: T1, Human EGFR-his (human, UniProt P00533 25-645); test: SPR, BEAT®3 captured on Protein G chip, EGFR-his injected; sample after high pH, 0 h
T1 construct: Soluble his-tagged antigen injected over captured BEAT®3; also called hsEGFR; not shown: his tag

[2] = biological target: T1, Human EGFR-his; test: SPR, BEAT®3 captured on Protein G chip, EGFR-his injected; sample after high pH, 2 h
[3] = biological target: T1, Human EGFR-his; test: SPR, BEAT®3 captured on Protein G chip, EGFR-his injected; sample after high pH, 4 h
[4] = biological target: T1, Human EGFR-his; test: SPR, BEAT®3 captured on Protein G chip, EGFR-his injected; sample after high pH, 24 h
[5] = biological target: T1, Human EGFR-his; test: SPR, BEAT®3 captured on Protein G chip, EGFR-his injected; average of 4 replicates of Reference #1 and #2
Procedure: The second assay, aims to determine the binding affinity to Human EGFR-his antigen. It was performed with a Serie S Sensor Chip Protein G (GE Healthcare).

B1: BEAT®3 (bispecific antibody, human IgG1, kappa, L234A L235A)
chain 1: EVQLVESGGGLVQPGGSLRLSCAASGFTFNTYAMNWVRQAPGKGLEWVARIRSKYNNYATYYADSVKSRFTISRDDSKNTLYLQMNSLRAEDTAVYYCVRHGNFGNSYVSYFAYWGQGTTVTVSSGGGGSGGGGSGGGGSEIVVTQSPATLSVSPGERATLSCRSSTGAVTESNYANWVQEKPGQAFRGLIGGANKRAPGVPARFSGSLSGDEATLTISSLQSEDFAVYYCALFYSNTWVFGQGTKLEIKGGGGTQVQLQESGPGLVKPSETLSLTCTVSGGSVSSGDYYWTWIRQSPGKGLEWIGHIYYSGNTNYNPSLKSRLTISIDTSKTQFSLKLSSVTAADTAIYYCVRDRVTGAFDIWGQGTMVTVSSASTKGPSVFPLAPSSKSTSGGTAALGCLVKDYFPEPVTVSWNSGALTSGVHTFPAVLQSSGLYSLSSVVTVPSSSLGTQTYICNVNHKPSNTKVDKKVEPKSCDKTHTCPPCPAPEAAGGPSVFLFPPKPKDTLMISRTPEVTCVVVDVSHEDPEVQFKWYVDGVEVHNAKTKPREEQYNSTFRVVSVLTVLHQDWLNGKEYKCKVSNKALPAPIEKTISKTKGQPREPAVYTLPPSREEMTKNQVKLVCLVTGFYPSDIAVEWESSGQPENNYYTTPPMLDSDGSFSLVSWLNVDKSRWQQGNIFSCSVMHEALHNRFTQKSLSLSPG
chain 2: not shown
chain 3: DKTHTCPPCPAPEAAGGPSVFLFPPKPKDTLMISRTPEVTCVVVDVSHEDPEVKFNWYVDGVEVHNAKTKPREEQYNSTYRVVSVLTVLHQDWLNGKEYKCKVSNKALPAPIEKTISKAKGQPREPEVATFPPSRDELTKNQVTLVCLVTGFYPSDIAVEWESNGQPENNYKTDPPLLESDGSFALSSRLRVDKSRWQQGNVFSCSVMHEALHNHYTQKSLSLSPG
notes: also called third BEAT antibody
[1]
  Average rel KD: 0.98 relative to reference
  Relative KD R1: 0.988 relative to reference
[2]
  Average rel KD: 1.02 relative to reference
  Relative KD R1: 1.02 relative to reference
[3]
  Average rel KD: 1.09 relative to reference
  Relative KD R1: 1.11 relative to reference
[4]
  Average rel KD: 1.15 relative to reference
  Relative KD R1: 1.17 relative to reference
[5]
  Average rel KD: 1 relative to reference
